Reference: patent US20170002055A1, “Novel peptides and combination of peptides for use in immunotherapy against ovarian cancer and other cancers” (immatics biotechnologies GmbH, priority 2015, published 2017)

Molecular target: HLA-A*02:01 (Homo sapiens, UniProt P04439, D140Y/D185E/D98H/E176V/E277Q/G131W/G231S/I119V/I121R/I166T/I218V/L300P/L318F/N151K/N90K/P208A/P217A/Q86G/Q94H/R138H/R169H/T345S)
Experiment: MHC binding assay (UV-ligand exchange, β2m ELISA, peptide exchange yield)
Details: MHC class I binding score; binding to HLA-A*02:01 ranged by peptide exchange yield (UV-ligand exchange, β2m ELISA)
In short: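 Binding is expressed as peptide exchange yield: stabilized MHC complexes were quantified by β2m ELISA, with a 450 nm TMB read-out on streptavidin-coated plates. Complexes came from UV-ligand exchange, where UV irradiation cleaves a photolabile peptide so the candidate peptide can load.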

Row | Substance | Peptide exchange
1 | 582 (TLCDVILMV; listed as Homo sapiens) [compound 582] | “+++” (≧50 = +++)
2 | 585 (ALWDLAADKQTL; listed as Homo sapiens) [compound 585] | “++++” (≧75% = ++++)
3 | 586 (KLKPGDLVGV; listed as Homo sapiens) [compound 586] | “+++” (≧50 = +++)
4 | 587 (VMNDRLYAI; listed as Homo sapiens) [compound 587] | “+++” (≧50 = +++)
5 | 588 (SLLPLSHLV; listed as Homo sapiens) [compound 588] | “+++” (≧50 = +++)
6 | 589 (KLYPQLPAEI; listed as Homo sapiens) [compound 589] | “+++” (≧50 = +++)
7 | 592 (RLLSAAENFL; listed as Homo sapiens) [compound 592] | “+++” (≧50 = +++)
8 | 593 (GLPRFGIEMV; listed as Homo sapiens) [compound 593] | “+++” (≧50 = +++)
9 | 594 (IMLKGDNITL; listed as Homo sapiens) [compound 594] | “+++” (≧50 = +++)
10 | 595 (VLLSIYPRV; listed as Homo sapiens) [compound 595] | “+++” (≧50 = +++)
11 | 597 (KLLEGQVIQL; listed as Homo sapiens) [compound 597] | “+++” (≧50 = +++)
12 | 600 (ALAAPDIVPAL; listed as Homo sapiens) [compound 600] | “+++” (≧50 = +++)
13 | 601 (SAFPFPVTV; listed as Homo sapiens) [compound 601] | “+++” (≧50 = +++)
14 | 604 (SILDRDDIFV; listed as Homo sapiens) [compound 604] | “+++” (≧50 = +++)
15 | 606 (ALWETEVYI; listed as Homo sapiens) [compound 606] | “+++” (≧50 = +++)
16 | 607 (RLYSGISGLEL; listed as Homo sapiens) [compound 607] | “+++” (≧50 = +++)
17 | 608 (SLLSVSHAL; listed as Homo sapiens) [compound 608] | “+++” (≧50 = +++)
18 | 611 (YLLDDGTLVV; listed as Homo sapiens) [compound 611] | “++++” (≧75% = ++++)
19 | 612 (YLYNEGLSV; listed as Homo sapiens) [compound 612] | “+++” (≧50 = +++)
20 | 613 (RLLPPGAVVAV; listed as Homo sapiens) [compound 613] | “+++” (≧50 = +++)
21 | 615 (VLPPDTDPA; listed as Homo sapiens) [compound 615] | “++” (≧20% = ++)
22 | 616 (VLIDEVESL; listed as Homo sapiens) [compound 616] | “+++” (≧50 = +++)
23 | 617 (ALMYESEKVGV; listed as Homo sapiens) [compound 617] | “+++” (≧50 = +++)
24 | 618 (VLFDSESIGIYV; listed as Homo sapiens) [compound 618] | “+++” (≧50 = +++)
25 | 619 (ALQDRVPLA; listed as Homo sapiens) [compound 619] | “+++” (≧50 = +++)
26 | 621 (VLMDRLPSLL; listed as Homo sapiens) [compound 621] | “++++” (≧75% = ++++)
27 | 622 (RLLGEEVVRVLQA; listed as Homo sapiens) [compound 622] | “+++” (≧50 = +++)
28 | 623 (YLVEDIQHI; listed as Homo sapiens) [compound 623] | “+++” (≧50 = +++)

Next, values leading:

Row | Peptide exchange | Substance
29 | “++” (≧20% = ++) | 580 (LLMENAERV; listed as Homo sapiens) [compound 580]
30 | “+++” (≧50 = +++) | 583 (ILANDGVLLAA; listed as Homo sapiens) [compound 583]
31 | “+++” (≧50 = +++) | 584 (ALAEVAAMENV; listed as Homo sapiens) [compound 584]
32 | “++” (≧20% = ++) | 590 (SLIEKLWQT; listed as Homo sapiens) [compound 590]
33 | “+++” (≧50 = +++) | 591 (SMAELDIKL; listed as Homo sapiens) [compound 591]
34 | “+++” (≧50 = +++) | 596 (ALLDQTKTLAESAL; listed as Homo sapiens) [compound 596]
35 | “+++” (≧50 = +++) | 598 (FLFPHSVLV; listed as Homo sapiens) [compound 598]
36 | “+++” (≧50 = +++) | 599 (YLLNDASLISV; listed as Homo sapiens) [compound 599]
37 | “++++” (≧75% = ++++) | 602 (YLLEQIKLIEV; listed as Homo sapiens) [compound 602]
38 | “+++” (≧50 = +++) | 605 (KLYEAVPQL; listed as Homo sapiens) [compound 605]
39 | “+++” (≧50 = +++) | 609 (ALWKQLLEL; listed as Homo sapiens) [compound 609]
40 | “+++” (≧50 = +++) | 610 (LLAPTPYIIGV; listed as Homo sapiens) [compound 610]
41 | “+++” (≧50 = +++) | 614 (LLLPDQPPYHL; listed as Homo sapiens) [compound 614]
42 | “++++” (≧75% = ++++) | 620 (KLLNKIYEA; listed as Homo sapiens) [compound 620]
43 | “+++” (≧50 = +++) | 635 (SLDSTLHAV; listed as Homo sapiens) [compound 635]
